Data on 41 molecules can be found in patent US20260151494A1.

Numbering of substitutions follows the chain as printed.

To fix the notation:
B1: CD71-binding FN3 domain SEQ ID NO: 332 (designed binder)
chain: MSLPAPKNLVVSRVTEDSARLSWTAPDAAFDSFEIGYWEGPGGGEAIILVVPGSERSYDLTGLKPGTEYYVQIGGVKGGDWSTPLWATFTT
B2: CD71-binding FN3 domain SEQ ID NO: 306 (designed binder)
chain: MSLPAPKNLVVSRVTEDSARLSWTAPDAAFDSFEIGHFENLYLGEAIVLTVPGSERSYDLTGLKPGIEYWVQIGGVKGGVWSVSLSAIFTT
B3: CD71-binding FN3 domain SEQ ID NO: 311 (designed binder)
chain: B2 chain with H37Y, F38W, L41A, L43K, I67T, W70V, Q72F, V80S, V83N, S84P
B4: CD71-binding FN3 domain SEQ ID NO: 308 (designed binder)
chain: B2 chain with L21M, A25T, H37Y, I67T, V80N, V83A, S84P
B5: CD71-binding FN3 domain SEQ ID NO: 319 (designed binder)
chain: B2 chain with D27G, H37Y, I67T, S84P
B6: CD71-binding FN3 domain SEQ ID NO: 326 (designed binder)
chain: B2 chain with H37Y, F38W, L41A, L43K, I67T, V83T, S84P
B7: CD71-binding FN3 domain SEQ ID NO: 324 (designed binder)
chain: B2 chain with V14I, H37Y, I67T, V80N, V83A, S84P, F89S
B8: CD71-binding FN3 domain SEQ ID NO: 320 (designed binder)
chain: B2 chain with A5V, H37Y, F38W, L41A, L43K, I67T, V80N, V83A, S84P
B9: CD71-binding FN3 domain SEQ ID NO: 297 (designed binder)
chain: MSLPAPKNLVVSRVTEDSARLSWTAPDAAFDSFEISYFENTWYGEAIVLTVPGSERSYDLTGLKPGTEYSVRIFGVKGGNFSFPLSAIFTT
B10: CD71-binding FN3 domain SEQ ID NO: 299 (designed binder)
chain: B2 chain with G36A, H37Y, I67T, V80N, V83A, S84P
B11: CD71-binding FN3 domain SEQ ID NO: 328 (designed binder)
chain: B2 chain with H37Y, E39G, I67T, V80N, V83A, S84P
B12: CD71-binding FN3 domain SEQ ID NO: 301 (designed binder)
chain: B2 chain with A25T, H37Y, I67T, V80N, V83A, S84P
B13: CD71-binding FN3 domain SEQ ID NO: 238 (designed binder)
chain: B2 chain with H37Y, L41D, L43F, I67T, W70V, Q72F, V80K, V83A, S84P
B14: CD71-binding FN3 domain SEQ ID NO: 315 (designed binder)
chain: B2 chain with H37Y, I67T, V80N, V83A, S84P, F89S
B15: CD71-binding FN3 domain SEQ ID NO: 298 (designed binder)
chain: B2 chain with H37Y, I67T, G79D, V80N, V83A, S84P
B16: CD71-binding FN3 domain SEQ ID NO: 329 (designed binder)
chain: B9 chain with E34D, S36G, N40A, W42Y, S70R, R72W, F74G, N80Y, F81Y, F83N
B17: CD71-binding FN3 domain SEQ ID NO: 312 (designed binder)
chain: B2 chain with H37Y, V51I, I67T, V80N, V83A, S84P
B18: CD71-binding FN3 domain SEQ ID NO: 239 (designed binder)
chain: B9 chain with S36V, F38Q, T41S, W42A, S70W, R72Q, F74G, F81W, F83A
B19: CD71-binding FN3 domain SEQ ID NO: 236 (designed binder)
chain: B2 chain with A25E, H37Y, I67T, V80N, V83A, S84P
B20: CD71-binding FN3 domain SEQ ID NO: 316 (designed binder)
chain: B2 chain with V11I, H37Y, I67T, V80N, V83A, S84P
B21: CD71-binding FN3 domain SEQ ID NO: 309 (designed binder)
chain: B2 chain with K7E, H37Y, I67T, V80N, V83A, S84P
B22: CD71-binding FN3 domain SEQ ID NO: 327 (designed binder)
chain: B2 chain with H37Y, F38W, L41A, L43K, I67T, V80N, V83A, S84P
B23: CD71-binding FN3 domain SEQ ID NO: 322 (designed binder)
chain: B9 chain with S36G, N40I, W42R, V48I, T50F, S70W, R72Q, F74G, F81W, F83A
B24: CD71-binding FN3 domain SEQ ID NO: 313 (designed binder)
chain: B9 chain with S36A, T41D, Y43A, V51I, S70W, R72Q, F74G, F81W, F83A
B25: CD71-binding FN3 domain SEQ ID NO: 325 (designed binder)
chain: B2 chain with H37Y, I67T, V80N, V83A, S84P, A87E
B26: CD71-binding FN3 domain SEQ ID NO: 307 (designed binder)
chain: B2 chain with D31N, H37Y, I67T, V80T, W81F, V83A, S84P
B27: CD71-binding FN3 domain SEQ ID NO: 237 (designed binder)
chain: B9 chain with S36A, N40R, Y43F, S70W, R72Q, F74G, N80D, F81W, F83K
B28: CD71-binding FN3 domain SEQ ID NO: 304 (designed binder)
chain: B2 chain with H37Y, I67T, W70V, Q72F, S84P
B29: CD71-binding FN3 domain SEQ ID NO: 305 (designed binder)
chain: B2 chain with G36A, H37Y, N40Q, L41T, L43T, I67T, V80N, V83A, S84P
B30: CD71-binding FN3 domain SEQ ID NO: 330 (designed binder)
chain: B2 chain with H37Y, I67T, V80N, V83A, S84P, F89V
B31: CD71-binding FN3 domain SEQ ID NO: 300 (designed binder)
chain: B9 chain with S36G, N40A, W42P, Y43N, S70K, R72F, F74G, N80R, F81W, F83K
B32: CD71-binding FN3 domain SEQ ID NO: 323 (designed binder)
chain: B2 chain with H37Y, I67T, V80N, V83G, S84P
B33: CD71-binding FN3 domain SEQ ID NO: 331 (designed binder)
chain: MSLPAPKNLVVSRVTEDSARLSWTAPDAAFDSFFIGYLEPQPPGEAIHLYVPGSERSYDLTGLKPGTEYNVTIQGVKVGFPSEPLIANFTT
B34: CD71-binding FN3 domain SEQ ID NO: 333 (designed binder)
chain: B33 chain with K7E, H48A, V78G, E83L, I86V, N88T
B35: CD71-binding FN3 domain SEQ ID NO: 234 (designed binder)
chain: B33 chain with H48A, V78G, I86V, N88H
B36: CD71-binding FN3 domain SEQ ID NO: 241 (designed binder)
chain: MSLPAPKNLVVSRVTEDSARLSWTAPDAAFDSFMIAYDEFIVWGEAVVLTVPGSERSYDLTGLKPGTEYLVEILGVKGGTISGPLSAIFTT
B37: CD71-binding FN3 domain SEQ ID NO: 235 (designed binder)
chain: MSLPAPKNLVVSRVTEDSARLSWTAPDAAFDSFEIVYAEPVRFGEAIVLTVPGSERSYDLTGLKPGTEYWVQIGGVKGGNWSAPLSAIFTT
B38: CD71-binding FN3 domain SEQ ID NO: 240 (designed binder)
chain: MSLPAPKNLVVSRVTEDSARLSWTAPDAAFDSFHIWYFEKANEGEAIPLVVPGSERSYDLTGLKPGTEYDVDIGGVKGGAWSIPLGARFTT
B39: CD71-binding FN3 domain SEQ ID NO: 314 (designed binder)
chain: MGSLPAPKNLVVSRVTEDSARLSWTAPDAAFDSFEIGYFENLYLGEAIVLTVPGSERSYDLTGLKPGTEYWVQIGGVKGGNWSAPLSAIFTT
B40: CD71-binding FN3 domain SEQ ID NO: 310 (designed binder)
chain: MSLPAPKNLVVSRVTEDSARLSWTAPDAAFDSFEIDYGEYSQAGEAIGLLVPGSERSYDLTGLKPGTEYAVWIGGVKGGFFSTPLEADFTT
B41: CD71-binding FN3 domain SEQ ID NO: 303 (designed binder)
chain: MSLPAPKNLVVSRVTEDSARLSWTAPDAAFDSFWIEYWEGWKSGEAIVLTVPGSERSYDLTGLKPGTEYRVHIWGVKGGIVSWPLSAIFTT

The first test addresses apical domain of CD71 (Screen 3: 'cynomolgus apical domain of human CD71') (cynomolgus (as paragraph 454 words it; ambiguous)). Put plainly: primary ELISA, RLU ratio to HSA.
On to B1, for which the Apical domain:HSA worked out at 380.

Take B2: the Apical domain:HSA was found to be 320.

For the molecule B3, the Apical domain:HSA came to 260.

As for B4, the Apical domain:HSA was 188.

With B5, the Apical domain:HSA came to 187.

For the molecule B6, the Apical domain:HSA worked out at 215.

In the case of B7, the Apical domain:HSA came to 462.

As to B8, the Apical domain:HSA is 290.

On to B9, for which the Apical domain:HSA is 1030.

For the molecule B10, the Apical domain:HSA came to 614.

Take B11: the Apical domain:HSA was determined as 42.

On to B12, for which the Apical domain:HSA came to 216.

Turning to B13, the Apical domain:HSA was 954.

Turning to B14, the Apical domain:HSA turned out to be 73.

Turning to B15, the Apical domain:HSA amounted to 414.

Consider B16, for which the Apical domain:HSA amounted to 128.

Turning to B17, the Apical domain:HSA amounted to 556.

On to B18, for which the Apical domain:HSA was 442.

Turning to B19, the Apical domain:HSA worked out at 164.

With B20, the Apical domain:HSA turned out to be 442.

With B21, the Apical domain:HSA was determined as 452.

B22: the Apical domain:HSA came out at 227.

With B23, the Apical domain:HSA was 252.

For the molecule B24, the Apical domain:HSA is 835.

Regarding B25, the Apical domain:HSA stood at 205.

Consider B26, for which the Apical domain:HSA stood at 72.

With B27, the Apical domain:HSA is 672.

With B28, the Apical domain:HSA came out at 446.

As to B29, the Apical domain:HSA turned out to be 495.

For the molecule B30, the Apical domain:HSA turned out to be 92.

With B31, the Apical domain:HSA came to 406.

Consider B32, for which the Apical domain:HSA is 95.

On to B33, for which the Apical domain:HSA stood at 701.

For the molecule B34, the Apical domain:HSA worked out at 171.

With B35, the Apical domain:HSA came out at 798.

Turning to B36, the Apical domain:HSA worked out at 324.

Turning to B37, the Apical domain:HSA worked out at 558.

Take B38: the Apical domain:HSA amounted to 71.

Consider B39, for which the Apical domain:HSA was 427.

B40: the Apical domain:HSA came out at 168.

Regarding B41, the Apical domain:HSA was 636.

For another test the target is unchanged. Put plainly: primary ELISA.
The molecule B1 returned an RLU of 4.94e+06 RLU.

B2 had an RLU of 4.74e+06 RLU.

The molecule B3 returned an RLU of 4.66e+06 RLU.

For the molecule B4, the RLU was 5.26e+06 RLU.

B5: the RLU is 4.57e+06 RLU.

With B6, the RLU came to 4.07e+06 RLU.

B7: the RLU was 4.92e+06 RLU.

Regarding B8, the RLU is 3.99e+06 RLU.

Take B9: the RLU is 5.29e+06 RLU.

In the case of B10, the RLU was 5.35e+06 RLU.

For B11, the RLU turned out to be 3.7e+06 RLU.

Molecule B12 registered an RLU of 4.53e+06 RLU.

Consider B13, for which the RLU was 6.39e+06 RLU.

The molecule B14 returned an RLU of 4.4e+06 RLU.

Regarding B15, the RLU is 5.3e+06 RLU.

Molecule B16 yielded an RLU of 4.64e+06 RLU.

Turning to B17, the RLU was 5.31e+06 RLU.

B18 yielded an RLU of 5.4e+06 RLU.

B19 gave an RLU of 5.32e+06 RLU.

In the case of B20, the RLU worked out at 4.44e+06 RLU.

For B21, the RLU worked out at 5.62e+06 RLU.

Molecule B22 yielded an RLU of 4.24e+06 RLU.

The molecule B23 yielded an RLU of 4.99e+06 RLU.

With B24, the RLU was determined as 5.17e+06 RLU.

Turning to B25, the RLU worked out at 4.37e+06 RLU.

As to B26, the RLU came out at 5.36e+06 RLU.

Consider B27, for which the RLU amounted to 5.01e+06 RLU.

Molecule B28 registered an RLU of 5.5e+06 RLU.

In turn, B29 gave an RLU of 5.69e+06 RLU.

Take B30: the RLU turned out to be 4.31e+06 RLU.

B31 had an RLU of 5.57e+06 RLU.

With B32, the RLU stood at 4.22e+06 RLU.

In turn, B33 yielded an RLU of 6.24e+06 RLU.

Molecule B34 gave an RLU of 6.2e+06 RLU.

Molecule B35 showed an RLU of 7.51e+06 RLU.

In turn, B36 displayed an RLU of 6.21e+06 RLU.

B37 registered an RLU of 5.63e+06 RLU.

B38: the RLU stood at 6.83e+06 RLU.

Molecule B39 registered an RLU of 5.25e+06 RLU.

On to B40, for which the RLU worked out at 4.83e+06 RLU.

Consider B41, for which the RLU was found to be 5.6e+06 RLU.
